Source: the RNAGym collection of RNA variant scans (doi:10.1073/pnas.2313332121)

B1: TPR t1 (parent)
chain: GACCAAUCUGCCCUCAGAGCUCGAGAACAUCUUCGGAUGCAGAGGAGGCAGGCUUCGGUGGCGCGAUAGCGCCAACGUCCUCAACCUCCAAUGCAUCCCACCACAUGAUGAUGCCUGAAGAGCCUUGGUUUUUUG

Variants of: B1
Test: polymerase ribozyme fitness, log enrichment relative to wild type (log ratio); higher = more active; in vitro selection for triplet polymerase activity
Summary of the method: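 Mutant libraries for each subunit of a heterodimeric triplet polymerase ribozyme were made by PCR and then transcribed. Each library underwent one round of in vitro selection in triplicate: annealing with a biotinylated primer, the partner subunit and triplets, frozen incubation at −7 °C, gel excision of extended constructs, streptavidin-bead capture and RT-PCR. Input and output libraries were Illumina-sequenced, and only genotypes with ≥10 input reads and ≥1 read per output were kept. Fitness is the logarithm, base 2, of genotype enrichment over wild-type enrichment, computed from inverse-variance-weighted replicate averages.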

| Variant | polymerase ribozyme fitness (log ratio) |
| --- | --- |
| GCCCAAUCUGCCCUCAGAGCUCGAGAACAUCUUCGGUUGCAGAGGAGGCAGGCUUCGGUGGCGCGAUAGCGCUAACGUCCUCAACCUCCAAUACAUCCCACCACAUGAUGAUGCCUGAACAGCCUUGGUUUUUUG | -2.44 |
| GCCCAAUCUGGCGUCAGAGCUCGAGAACAUCUUCGGAUGCAUAGGAGGCAGGCUUCGGUGGCGCGAUAGCGCCAGCGUCCACAACCUCCAAUGCAUCCCACCACAUGAUGAUGCCUGAAGAGCCUUGGUUUUUUG | -4.31 |
| GCCCAAUCUGCCCUCUGAGCUCGAGAACAUCUUCGGAUGCAGAGGAGGCAGGCUUCGGUGGCGCGAUAGCGACAACGUCCUCAACCUCCAAUGCAUCCCACCACAUGAUGAUGCCUGAAGAGCCAUGGUUUUUUG | -3.54 |
| GCCCAAUCUGCCCUCAGAGCUCGAGAACAUCUUCGGAUGCAGAGGAGGCAGGCUUCGGUGGCGCGAUAGCGCCAACGUCCUCAACCUCCAAUGCAUCCCCCCACAUGAAGAUGCCUGAAGAGCCUUGGUUUUUUG | -6.4 |
| GCCCAGUAUGCCCUCAGAGCUCGAGAACAUCUUCGGAUGCAGAGGAGGCAGGCUUCGGUGACGCGAUAGCGCCAACGUCCUCAACCUCCAAUGCAUCCCAGCACAUGAUGAUGCCUGAAGAGCCUUGGUUCUUUG | -1.87 |
| GCCCGACCUGCCAUCAGAGCUCGAGAACAUCUUCGGAUGCAGAGGAGUCUGGCUUCGGUGGCGCGAUAGCGCCAACGUCCUCAACCUCCAACGCAUUCCACCACAUGAUGAUGCCUGAAGAGUCUUGGUUUUUUG | -4.24 |
| GCCUAAUCUGCCUUCAGAGCUCGAGAACAUCUUCGGAUGCAGAGGAGGCAGGCUUCGGUGGCGCGAUAGCGCCAACGUCCUCAACCUCCAAUGCAUCCCACCACAUGAUGAUGUCUGAAGAGCGUUGGUUUUUUG | -1.63 |
| GCCUAAUCUGCCCUCAGAGCUCGAGAACAUCUUCGUAUGCAGAGGAGGCAGGCUUCGGUGGCGCGAUAGCGCAAACGUCCUCAACCUCCAAUGCAUCCCACCAUAUGAUGAUGCCUGAAGAGCCUUGGUUUUUUG | -2.65 |
| GCCCAAUCUGCCCUCAGAGCUCGAGAACAUCUUCGGUUGCAGAGGAGGCAGGCUUCGGUGGCGCGAUAGCGCCAACGGCCUCAACCUCCAAUGCAUCCCACCACAUGAUGAUGCCUGAAUAGCCUUGGUUUUUUG | -1.6 |
| GCCAAAUCUGCCCUCAGAGCUCGAGAACAUCUUCGGAUGCAGAGGAGGCAGGCUUCGGUGGCGCGAUAGCGCCAACGUCCUCAACCUCCAAUGCAUCCCACCACAUGAUGAUGCCUGAAGAGCCUUGGUUUUUUG | -1.3 |
| GCCAAAUCUGCCCUCAGAGCUCGAGAACAUCUUCGGAUGCAGAAGAGGUAGGCUUCGGUGGCACGAUAGCGCCAACGUCCUCAACCUCCAAUGCAUCCCACCACAUGAUGAUGCCUGAAGAGCCUUGGUUUUUUG | -3.51 |
| GCCCAAUCUGCCCUCGGAGCUCGAGAACAUCUUCGGAUGCAGAGGAGGAAGGCUGCGGUGGCGCGAUAGCGCCAACGUCCUCAACCUCCAAUGCAUCCCACCACAUGAUGAUGCCUGAACAGCUUUGGUUUUUUG | -1.14 |
| GCCAAAUCUGCCCUCAGAGCUCGAGAACAUCUUCGGAUGCAGAGGAGGCAGGCUUCGGUGGCGCGAUAGCGCCAACGUCCUCAUCCUCCAAUGCAUCCCACCACAUGAUGAUGCGUGAAGAGCCUUGGUUUUUUG | -5.82 |
| GCCCAAUCUGCCCUCAGAGCUCGAGAACAUCUUCGGUUGCAGAGGAGGCAGGCUUCGGUGGCGCGAUAGCGCCAACGUCCUCAACCUCCAAUGCAUCCCACCACAUGAUGAUGCCUGAAGAGUCUUGGUUUUUUG | -0.77 |
| GCCCAAUCUGUCCUUAGAGCUCGAGAACAUCUUCGGAUGCAGAGGAGGCAGGCUGCGGUGGCUCGAUAGCGCCAACGUCCUCAACCUCCGAUGCAUCCCACCACAUGAUGAUGCCUGAAGGGCCUUGGUUUUUUG | -1.56 |
| GCUCAAUCUGCCCUCAGAGCUCGAGAACAUCUUCGGAUGCAGAGGAGGCAGGCUUCGGCGGCGCGAUAGCGCCAACGUCCUCAACCUCCAAUGCAUCCCACCAAAUGAUGAUGCCUGAAGAGCCUUGGUUUUUUG | -4.21 |
| GCCCAAUCUGCUCUCAGAGCUCGAGAACAUCUUCGGAUGCAUAGGAGGCAGGCUUCGGUGGCGCGAUAGCUCCAACGUCCUCAUCCUCCAAUGAAUCCCACCACAUGAUGAUGCCUGAAGAGCCUUGGAUUUUUG | -4.83 |
| GCCCAAUCUGCCCUCAGAGCUCGAGAACAUCUUCGGAUGCAGAGGAGGCAGGCUUCGGUGGCGCGAUAGCGCCAACGUCCUCAGCCUCCAAUGCAUCCUACCACAUGAUGAUGCCUGAAGAGCCUUGGUUUUUUG | -6.59 |
| GCCCAAUCUGCCCUCAGAGCUCGAGAACAUCUUCGGAUGCAGAGGAGGCUGGCUUCGGAGGCGCGAUAGCGCCAACGUCCUCAACCUCCAAUGCAUCCCACCACAUGAUGCUGCCUGAAGCGCCUUGGUUUUAUC | -1.62 |
| GCCCAAUCUGCCGUCUGAGCUCGAGAACAUCUUCGGAUGCAGAGGAGGCAGGCUUCGGUGGCGCGAUAGCGCCAACGUCCUCAACCUCCAAUGCAUCCCACCACAUGAUGAUGCCUGAAGAGCCUUGGUUUUUUG | -4.01 |
| GCCAAAUCUGCCCUCAGAGCUCGAGAACAUCUUCGGAUGCAGAGGAGGCAGGCUUCGGUGGCGCGAUAGCGCCAACGUCCUCAACCUCCAAUGCAUCCCACCACAUGGUGAUGCCUGAAGAGCCUUGGUUUUUUG | -3.25 |
